Data from the supplement of paper PMC7125110.
± gives the standard error. Variants at the floor of the assay were thinned out.

B1: glmS ribozyme (parent)
chain: AUAAAAGCGCCAGAACUACAGAAAUGUAGUUGACGAGGAGGAGGUUUAUCGAAUUUUCGGCGGAUGCCUCCAAA

Tests used:
Conditions in all cases: with glucosamine-6-phosphate
glucosamine-6-phosphate [1] = variants of: B1; assay: self-cleavage kobs at 40 uM GlcN6P; higher = faster cleavage; RNA array
Procedure, shortened: (§1)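 Ribozyme variants carrying barcodes were transcribed in situ on sequenced MiSeq chips by E. coli RNA polymerase and tracked at 37 °C with a hybridised Cy3 probe. They were exposed to 40 μM to 10 mM glucosamine-6-phosphate in HEPES/KCl/Mg(OAc)2 buffer. kobs came from exponential decay fits of normalised per-tile medians, and kcat and KM from weighted Michaelis–Menten fits.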

glucosamine-6-phosphate [2] = variants of: B1; assay: self-cleavage kobs at 640 uM GlcN6P; higher = faster cleavage; RNA array
Procedure, shortened: as §1

glucosamine-6-phosphate [3] = variants of: B1; assay: self-cleavage kobs at 160 uM GlcN6P; higher = faster cleavage; RNA array
Procedure, shortened: as §1

glucosamine-6-phosphate [4] = variants of: B1; assay: self-cleavage kobs at 2500 uM GlcN6P; higher = faster cleavage; RNA array
Procedure, shortened: as §1

glucosamine-6-phosphate [5] = variants of: B1; assay: self-cleavage kobs at 10000 uM GlcN6P; higher = faster cleavage; RNA array
Procedure, shortened: as §1

C11U A36C C61U was tested, and the “self-cleavage kobs at 40 uM GlcN6P” value (glucosamine-6-phosphate [1]) was < 1e-05 s⁻¹ and the “self-cleavage kobs at 640 uM GlcN6P” value (glucosamine-6-phosphate [2]) was < 1e-05 s⁻¹.

For G40U U56A, the “self-cleavage kobs at 40 uM GlcN6P” value (glucosamine-6-phosphate [1]) was 6.75e-05 ± 1.3e-05 s⁻¹, the “self-cleavage kobs at 160 uM GlcN6P” value (glucosamine-6-phosphate [3]) was 0.000124 ± 3.2e-05 s⁻¹ and the “self-cleavage kobs at 640 uM GlcN6P” value (glucosamine-6-phosphate [2]) was 0.000381 ± 4.4e-05 s⁻¹. For the same variant, the “self-cleavage kobs at 2500 uM GlcN6P” value (glucosamine-6-phosphate [4]) was 0.00116 ± 0.00022 s⁻¹ and the “self-cleavage kobs at 10000 uM GlcN6P” value (glucosamine-6-phosphate [5]) was 0.00344 ± 0.00064 s⁻¹.

In the case of G29U U46G C50U G60U G66U, the “self-cleavage kobs at 40 uM GlcN6P” value (glucosamine-6-phosphate [1]) is reported as < 1e-05 s⁻¹.

A39U G44A C71A was tested, and the “self-cleavage kobs at 40 uM GlcN6P” value (glucosamine-6-phosphate [1]) was < 1e-05 s⁻¹ and the “self-cleavage kobs at 160 uM GlcN6P” value (glucosamine-6-phosphate [3]) was < 1e-05 s⁻¹.

In the case of A36G G63A, the “self-cleavage kobs at 40 uM GlcN6P” value (glucosamine-6-phosphate [1]) is reported as < 1e-05 s⁻¹, the “self-cleavage kobs at 160 uM GlcN6P” value (glucosamine-6-phosphate [3]) is reported as < 1e-05 s⁻¹ and the “self-cleavage kobs at 640 uM GlcN6P” value (glucosamine-6-phosphate [2]) is reported as < 1e-05 s⁻¹. The “self-cleavage kobs at 2500 uM GlcN6P” value (glucosamine-6-phosphate [4]) was < 1e-05 s⁻¹ and the “self-cleavage kobs at 10000 uM GlcN6P” value (glucosamine-6-phosphate [5]) was < 1e-05 s⁻¹.

A6C A64U was tested, and the “self-cleavage kobs at 40 uM GlcN6P” value (glucosamine-6-phosphate [1]) was < 1e-05 s⁻¹, the “self-cleavage kobs at 160 uM GlcN6P” value (glucosamine-6-phosphate [3]) was < 1e-05 s⁻¹ and the “self-cleavage kobs at 640 uM GlcN6P” value (glucosamine-6-phosphate [2]) was < 1e-05 s⁻¹. The “self-cleavage kobs at 10000 uM GlcN6P” value (glucosamine-6-phosphate [5]) was < 1e-05 s⁻¹.

In the case of G35C C50U C70G, the “self-cleavage kobs at 40 uM GlcN6P” value (glucosamine-6-phosphate [1]) is reported as < 1e-05 s⁻¹.

C70U was tested, and the “self-cleavage kobs at 40 uM GlcN6P” value (glucosamine-6-phosphate [1]) was 0.00149 ± 4.2e-05 s⁻¹, the “self-cleavage kobs at 160 uM GlcN6P” value (glucosamine-6-phosphate [3]) was 0.00417 ± 0.00021 s⁻¹ and the “self-cleavage kobs at 640 uM GlcN6P” value (glucosamine-6-phosphate [2]) was 0.0095 ± 0.00039 s⁻¹. The “self-cleavage kobs at 2500 uM GlcN6P” value (glucosamine-6-phosphate [4]) was 0.0161 ± 0.0012 s⁻¹ and the “self-cleavage kobs at 10000 uM GlcN6P” value (glucosamine-6-phosphate [5]) was 0.0554 ± 0.0035 s⁻¹.

U56C C61U was tested, and the “self-cleavage kobs at 40 uM GlcN6P” value (glucosamine-6-phosphate [1]) was < 1e-05 s⁻¹, the “self-cleavage kobs at 160 uM GlcN6P” value (glucosamine-6-phosphate [3]) was < 1e-05 s⁻¹ and the “self-cleavage kobs at 640 uM GlcN6P” value (glucosamine-6-phosphate [2]) was < 1e-05 s⁻¹. The “self-cleavage kobs at 2500 uM GlcN6P” value (glucosamine-6-phosphate [4]) was < 1e-05 s⁻¹ and the “self-cleavage kobs at 10000 uM GlcN6P” value (glucosamine-6-phosphate [5]) was < 1e-05 s⁻¹.

For G38U A52C C61A, the “self-cleavage kobs at 40 uM GlcN6P” value (glucosamine-6-phosphate [1]) was < 1e-05 s⁻¹.

For G37C A64U, the “self-cleavage kobs at 40 uM GlcN6P” value (glucosamine-6-phosphate [1]) was < 1e-05 s⁻¹, the “self-cleavage kobs at 160 uM GlcN6P” value (glucosamine-6-phosphate [3]) was < 1e-05 s⁻¹ and the “self-cleavage kobs at 640 uM GlcN6P” value (glucosamine-6-phosphate [2]) was < 1e-05 s⁻¹. The “self-cleavage kobs at 2500 uM GlcN6P” value (glucosamine-6-phosphate [4]) was < 1e-05 s⁻¹ and the “self-cleavage kobs at 10000 uM GlcN6P” value (glucosamine-6-phosphate [5]) was < 1e-05 s⁻¹.

G35A U47C was tested, and the “self-cleavage kobs at 40 uM GlcN6P” value (glucosamine-6-phosphate [1]) was < 1e-05 s⁻¹, the “self-cleavage kobs at 160 uM GlcN6P” value (glucosamine-6-phosphate [3]) was < 1e-05 s⁻¹ and the “self-cleavage kobs at 640 uM GlcN6P” value (glucosamine-6-phosphate [2]) was < 1e-05 s⁻¹. For the same variant, the “self-cleavage kobs at 2500 uM GlcN6P” value (glucosamine-6-phosphate [4]) was < 1e-05 s⁻¹.

For C11U A15G C50G, the “self-cleavage kobs at 40 uM GlcN6P” value (glucosamine-6-phosphate [1]) was 5.89e-05 ± 2.4e-05 s⁻¹.

In the case of C8U A15G G38U C61G C68G, the “self-cleavage kobs at 40 uM GlcN6P” value (glucosamine-6-phosphate [1]) is reported as 0.00048 ± 0.00015 s⁻¹ and the “self-cleavage kobs at 10000 uM GlcN6P” value (glucosamine-6-phosphate [5]) is reported as 0.000181 ± 4.8e-05 s⁻¹.

For A14U G35C, the “self-cleavage kobs at 40 uM GlcN6P” value (glucosamine-6-phosphate [1]) was < 1e-05 s⁻¹, the “self-cleavage kobs at 160 uM GlcN6P” value (glucosamine-6-phosphate [3]) was < 1e-05 s⁻¹ and the “self-cleavage kobs at 640 uM GlcN6P” value (glucosamine-6-phosphate [2]) was < 1e-05 s⁻¹. The “self-cleavage kobs at 2500 uM GlcN6P” value (glucosamine-6-phosphate [4]) was < 1e-05 s⁻¹ and the “self-cleavage kobs at 10000 uM GlcN6P” value (glucosamine-6-phosphate [5]) was < 1e-05 s⁻¹.

In the case of G38C U47A C70U, the “self-cleavage kobs at 40 uM GlcN6P” value (glucosamine-6-phosphate [1]) is reported as < 1e-05 s⁻¹.

G9A G63A was tested, and the “self-cleavage kobs at 40 uM GlcN6P” value (glucosamine-6-phosphate [1]) was < 1e-05 s⁻¹, the “self-cleavage kobs at 640 uM GlcN6P” value (glucosamine-6-phosphate [2]) was < 1e-05 s⁻¹ and the “self-cleavage kobs at 2500 uM GlcN6P” value (glucosamine-6-phosphate [4]) was < 1e-05 s⁻¹. The “self-cleavage kobs at 10000 uM GlcN6P” value (glucosamine-6-phosphate [5]) was < 1e-05 s⁻¹.

With A6C A52U U54A U55C the “self-cleavage kobs at 40 uM GlcN6P” value (glucosamine-6-phosphate [1]) was < 1e-05 s⁻¹, the “self-cleavage kobs at 640 uM GlcN6P” value (glucosamine-6-phosphate [2]) was < 1e-05 s⁻¹ and the “self-cleavage kobs at 10000 uM GlcN6P” value (glucosamine-6-phosphate [5]) was < 1e-05 s⁻¹.

In the case of G32U C34U A42C, the “self-cleavage kobs at 40 uM GlcN6P” value (glucosamine-6-phosphate [1]) is reported as < 1e-05 s⁻¹ and the “self-cleavage kobs at 2500 uM GlcN6P” value (glucosamine-6-phosphate [4]) is reported as < 1e-05 s⁻¹.

For C10U U65C, the “self-cleavage kobs at 40 uM GlcN6P” value (glucosamine-6-phosphate [1]) was < 1e-05 s⁻¹ and the “self-cleavage kobs at 10000 uM GlcN6P” value (glucosamine-6-phosphate [5]) was < 1e-05 s⁻¹.

U30A C58G U65C was tested, and the “self-cleavage kobs at 40 uM GlcN6P” value (glucosamine-6-phosphate [1]) was < 1e-05 s⁻¹.

G37U G43C was tested, and the “self-cleavage kobs at 40 uM GlcN6P” value (glucosamine-6-phosphate [1]) was < 1e-05 s⁻¹, the “self-cleavage kobs at 160 uM GlcN6P” value (glucosamine-6-phosphate [3]) was < 1e-05 s⁻¹ and the “self-cleavage kobs at 2500 uM GlcN6P” value (glucosamine-6-phosphate [4]) was < 1e-05 s⁻¹. For the same variant, the “self-cleavage kobs at 10000 uM GlcN6P” value (glucosamine-6-phosphate [5]) was < 1e-05 s⁻¹.
